{"source": "paper PMC6562446", "about": "(2019)", "binders": {"B1": {"name": "Pseudomonas fluorescens lectin (PFL) (natural protein)", "chain": "MSKYAVANQWGGSSAPWHPGGTWVLGARDNQNVVAIEIKSGDGGKSFTGTMTYAGEGPIGFKAQRTGQNQYNVENQWGGNDAPWHPGGKWVIGGRDNQNVIALSVTSSDGGKNLSGTNTYANEGPIGFRGQIE"}}, "experiment_in_all_cases": "SPR", "key": {"Recombinant B7-H4 [1]": {"biological_target": "T1, Recombinant B7-H4 (UniProt Q7Z7D3 25-259, N-glycans, including high mannose glycans through which PFL binds)", "T1 chain": "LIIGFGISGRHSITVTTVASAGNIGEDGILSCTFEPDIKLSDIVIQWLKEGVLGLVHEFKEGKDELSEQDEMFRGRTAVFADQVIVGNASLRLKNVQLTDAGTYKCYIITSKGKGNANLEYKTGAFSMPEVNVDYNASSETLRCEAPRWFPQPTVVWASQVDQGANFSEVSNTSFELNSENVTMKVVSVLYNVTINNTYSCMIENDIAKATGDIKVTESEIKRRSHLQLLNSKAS"}, "[2]": {"biological_target": "T2, Recombinant integrin αvβ3 (UniProt P06756 31-1048; P05106 27-718)", "T2 chain 1": "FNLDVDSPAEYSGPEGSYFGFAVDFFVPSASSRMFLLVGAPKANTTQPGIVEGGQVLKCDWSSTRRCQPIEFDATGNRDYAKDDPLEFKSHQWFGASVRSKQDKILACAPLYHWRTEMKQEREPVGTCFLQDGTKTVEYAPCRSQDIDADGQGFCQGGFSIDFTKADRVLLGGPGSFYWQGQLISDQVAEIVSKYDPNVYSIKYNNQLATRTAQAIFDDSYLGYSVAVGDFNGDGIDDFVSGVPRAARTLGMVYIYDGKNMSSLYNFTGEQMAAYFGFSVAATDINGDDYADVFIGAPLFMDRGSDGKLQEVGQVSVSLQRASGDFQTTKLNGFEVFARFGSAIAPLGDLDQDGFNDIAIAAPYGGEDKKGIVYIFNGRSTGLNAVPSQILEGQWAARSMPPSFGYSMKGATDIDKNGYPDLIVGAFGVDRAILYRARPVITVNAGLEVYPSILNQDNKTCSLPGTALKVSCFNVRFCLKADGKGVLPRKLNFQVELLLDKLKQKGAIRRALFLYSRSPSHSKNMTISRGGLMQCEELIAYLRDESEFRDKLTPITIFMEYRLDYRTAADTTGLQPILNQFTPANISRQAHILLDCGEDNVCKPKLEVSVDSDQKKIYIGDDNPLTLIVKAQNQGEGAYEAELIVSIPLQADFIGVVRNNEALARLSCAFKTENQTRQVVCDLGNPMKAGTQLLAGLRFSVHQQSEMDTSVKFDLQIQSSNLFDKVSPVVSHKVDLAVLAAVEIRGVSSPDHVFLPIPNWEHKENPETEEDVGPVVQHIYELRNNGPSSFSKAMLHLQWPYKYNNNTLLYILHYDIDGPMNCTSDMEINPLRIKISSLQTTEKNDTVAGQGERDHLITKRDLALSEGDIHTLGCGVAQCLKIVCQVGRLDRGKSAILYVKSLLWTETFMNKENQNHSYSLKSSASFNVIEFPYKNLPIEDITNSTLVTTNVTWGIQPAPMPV", "T2 chain 2": "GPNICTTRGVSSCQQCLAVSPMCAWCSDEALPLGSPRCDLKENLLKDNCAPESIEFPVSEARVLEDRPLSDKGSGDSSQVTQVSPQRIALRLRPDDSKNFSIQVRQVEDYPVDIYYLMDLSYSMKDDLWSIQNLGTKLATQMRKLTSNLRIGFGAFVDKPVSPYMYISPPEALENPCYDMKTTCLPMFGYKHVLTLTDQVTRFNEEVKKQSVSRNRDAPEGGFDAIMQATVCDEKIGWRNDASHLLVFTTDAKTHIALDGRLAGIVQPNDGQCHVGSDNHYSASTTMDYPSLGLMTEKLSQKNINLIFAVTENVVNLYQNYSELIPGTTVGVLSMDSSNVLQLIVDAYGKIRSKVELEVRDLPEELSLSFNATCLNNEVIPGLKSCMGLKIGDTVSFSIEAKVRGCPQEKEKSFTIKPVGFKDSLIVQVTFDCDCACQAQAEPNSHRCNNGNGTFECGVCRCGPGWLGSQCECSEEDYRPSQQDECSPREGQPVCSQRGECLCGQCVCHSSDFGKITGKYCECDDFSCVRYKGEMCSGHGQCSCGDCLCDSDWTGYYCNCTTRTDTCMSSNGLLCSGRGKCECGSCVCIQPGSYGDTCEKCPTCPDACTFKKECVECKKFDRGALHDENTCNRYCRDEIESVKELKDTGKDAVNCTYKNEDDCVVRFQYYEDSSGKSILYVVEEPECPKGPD"}, "Recombinant B7-H4 [3]": {"biological_target": "T1, Recombinant B7-H4"}, "[4]": {"biological_target": "T2, Recombinant integrin αvβ3"}}, "data": [{"binder": "B1", "values": [{"measurement": "Kd", "setting": "Recombinant B7-H4 [1]", "result": 5.35, "unit": "nM"}, {"measurement": "Kd", "setting": "[2]", "result": 1.65, "unit": "nM"}, {"measurement": "koff", "setting": "Recombinant B7-H4 [3]", "result": 0.00043, "unit": "s⁻¹"}, {"measurement": "koff", "setting": "[4]", "result": "8.69e-06", "unit": "s⁻¹"}]}]}
